Where a chain is given by its changes, count along the chain named.
T1: FcγRIIa R type extracellular domain with C-terminal His tag (human, UniProt P12318 34-217)
T1 construct: extracellular domain; also called FcgRIIa R; FcgRIIaR; not shown: His tag at the C terminus
T1 sequence (looked up): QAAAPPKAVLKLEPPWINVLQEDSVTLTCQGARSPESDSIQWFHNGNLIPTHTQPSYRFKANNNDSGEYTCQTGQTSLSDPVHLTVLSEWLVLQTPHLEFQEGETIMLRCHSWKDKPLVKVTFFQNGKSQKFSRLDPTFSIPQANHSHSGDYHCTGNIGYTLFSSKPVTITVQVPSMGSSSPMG

T2: FcγRIIa H type extracellular domain with C-terminal His tag (human, UniProt P12318 34-217)
T2 construct: extracellular domain; also called FcgRIIa H; FcgRIIaH; not shown: His tag at the C terminus
T2 sequence (looked up): T1 sequence (looked up) with R134H

T3: FcγRIIb extracellular domain with C-terminal His tag (human, UniProt P31994 43-217)
T3 construct: extracellular domain; also called FcgRIIb; 2b; not shown: His tag at the C terminus
T3 sequence (looked up): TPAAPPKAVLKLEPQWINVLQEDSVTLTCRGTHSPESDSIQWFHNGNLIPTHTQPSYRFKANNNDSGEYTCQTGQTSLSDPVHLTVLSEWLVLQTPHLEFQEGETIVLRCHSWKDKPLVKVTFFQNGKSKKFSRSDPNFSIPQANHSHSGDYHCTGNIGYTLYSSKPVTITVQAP

B1: H240-FA009/H240-FB001/L73-k0 (antibody, human IgG1, kappa)
heavy 1: QDQLVQSGAEVKKPGASVKVSCKASGFNIKDTYIQWVRQAPGQGLEWMGRIDPLRKQTKYREKFEGRVTITADTSTNTAYMELSSLRSEDTAVYYCVRSGREFDYWGQGTLVTVSSASTKGPSVFPLAPSSKSTSGGTAALGCLVKDYFPEPVTVSWNSGALTSGVHTFPAVLQSSGLYSLSSVVTVPSSSLGTKTYICNVNHKPSNTKVDKKVEPKSCDKTHTCPPCPAPEYYWGPSVFLFPPKPKDTLMISRTPEVTCVVVDVSDEEPEVKFNWYVDGVEVHNAKTKPREEQYNATYRVVSVLTVLHQDWLNGKEYKCKVSNKALPAPIEKTISKAKGQPREPQVYTLPPSRKEMTKNQVSLTCLVKGFYPSDIAVEWESNGQPENNYKTTPPVLDSDGSFFLYSKLTVDKSRWQQGNVFSCSVMHEALHNRYTQKSLSLSP
heavy 2: QDQLVQSGAEVKKPGASVKVSCKASGFNIKDTYIQWVRQAPGQGLEWMGRIDPLRKQTKYREKFEGRVTITADTSTNTAYMELSSLRSEDTAVYYCVRSGREFDYWGQGTLVTVSSASTKGPSVFPLAPSSKSTSGGTAALGCLVKDYFPEPVTVSWNSGALTSGVHTFPAVLQSSGLYSLSSVVTVPSSSLGTQTYICNVNHKPSNTKVDKKVEPKSCDKTHTCPPCPAPELLGGPSVFLFPPKPKDTLMISRTPEVTCVVVDVSHEEPEVQFNWYVDGVEVHNAKTKPREEQYNSTYRVVSVLTVLHQDWLNGKEYKCKVSNDALPMPIEETISKAKGQPREPQVYTLPPSREEMTKNQVSLTCLVKGFYPSDIAVEWESNGQPENNYKTTPPVLDSDGSFFLYSKLTVDKSRWQQGNVFSCSVMHEALHNHYTQESLSLSP
light: DIQMTQSPSSLSASVGDRVTITCRASQDIHKYIAWYQQKPGQAPRLLIQYTSTLQPGVPSRFSGSGSGTDYTFTISSLQPEDIATYYCLQYEQLRTFGGGTKVEIKRTVAAPSVFIFPPSDEQLKSGTASVVCLLNNFYPREAKVQWKVDNALQSGNSQESVTEQDSKDSTYSLSSTLTLSKADYEKHKVYACEVTHQGLSSPVTKSFNRGEC
notes: Heterodimerized anti-EREG IgG1 antibody; A chain altered from H240-AK072, B chain altered from H240-BH076
B2: H240-FA009/H240-FB015/L73-k0 (antibody, human IgG1, kappa)
heavy 1: B1 heavy 1
heavy 2: B1 heavy 2 with G136E
light: B1 light
notes: as for B1
B3: H240-FA012/H240-FB056/L73-k0 (antibody, human IgG1, kappa)
heavy 1: B1 heavy 1 with E271K
heavy 2: B1 heavy 2 with G136E, K146E, N202D, K287E
light: B1 light
notes: as for B1
B4: H240-FA024/H240-FB059/L73-k0 (antibody, human IgG1, kappa)
heavy 1: B1 heavy 1 with I198T, E271K, M357K
heavy 2: B1 heavy 2 with G137E, K146E, K287E
light: B1 light
notes: as for B1
B5: H240-FA024/H240-FB064/L73-k0 (antibody, human IgG1, kappa)
heavy 1: B1 heavy 1 with I198T, E271K, M357K
heavy 2: B1 heavy 2 with G136E, G137S, S191N, L192F, I198T, N202D, K213T
light: B1 light
notes: as for B1
B6: H240-FA024/H240-FB082/L73-k0 (antibody, human IgG1, kappa)
heavy 1: B1 heavy 1 with I198T, E271K, M357K
heavy 2: B1 heavy 2 with G137E, K146E, K287E, N383E
light: B1 light
notes: as for B1
B7: H240-FA030/H240-FB064/L73-k0 (antibody, human IgG1, kappa)
heavy 1: B1 heavy 1 with I198T, E271K
heavy 2: B1 heavy 2 with G136E, G137S, S191N, L192F, I198T, N202D, K213T
light: B1 light
notes: as for B1
B8: H240-FA030/H240-FB065/L73-k0 (antibody, human IgG1, kappa)
heavy 1: B1 heavy 1 with I198T, E271K
heavy 2: B1 heavy 2 with G136E, G137S, S191N, L192F, I198T, N202D, K213T, K287E
light: B1 light
notes: as for B1
B9: H240-FA030/H240-FB082/L73-k0 (antibody, human IgG1, kappa)
heavy 1: B1 heavy 1 with I198T, E271K
heavy 2: B1 heavy 2 with G137E, K146E, K287E, N383E
light: B1 light
notes: as for B1
B10: H240-FA024/H240-FB065/L73-k0 (antibody, human IgG1, kappa)
heavy 1: B1 heavy 1 with I198T, E271K, M357K
heavy 2: B1 heavy 2 with G136E, G137S, S191N, L192F, I198T, N202D, K213T, K287E
light: B1 light
notes: as for B1
B11: H240-FA030/H240-FB083/L73-k0 (antibody, human IgG1, kappa)
heavy 1: B1 heavy 1 with I198T, E271K
heavy 2: B1 heavy 2 with G136E, G137S, K146E, S191N, L192F, I198T, N202D, K213T, K287E
light: B1 light
notes: as for B1
B12: H240-FA030/H240-FB084/L73-k0 (antibody, human IgG1, kappa)
heavy 1: B1 heavy 1 with I198T, E271K
heavy 2: B1 heavy 2 with G136E, G137S, K146E, S191N, L192F, I198T, N202D, K213T, K287E, N383E
light: B1 light
notes: as for B1
B13: H240-FA024/H240-FB084/L73-k0 (antibody, human IgG1, kappa)
heavy 1: B1 heavy 1 with I198T, E271K, M357K
heavy 2: B1 heavy 2 with G136E, G137S, K146E, S191N, L192F, I198T, N202D, K213T, K287E, N383E
light: B1 light
notes: as for B1

Target: T1, FcγRIIa R type extracellular domain …
Test: SPR (Biacore), antibody captured on chip, soluble FcgR as analyte; experiment 2
Description: (§1) Antibodies of interest were analyzed for the interaction to FcgR according to the method described in Reference Example 8.
(§2) Analysis of interaction between obj ective antibody and the FcγR was carried out using Biacore T100 (GE Healthcare), Biacore T200, Biacore A100, and Biacore 4000. HBS-EP+ (GE Healthcare) was used as the running buffer, and the measurement temperature was set to 25° C. Chips produced by immobilizing the antigen peptide by the amine coupling method to a Series S sensor Chip CM5 (GE Healthcare), chips produced by allowing preliminarily biotinylated antigen peptides to interact with and immobilize onto a Series S Sensor Chip SA (certified) (GE Healthcare), chips produced by immobilizing Protein L (ACTIGEN, BioVision) to Series S Sencor Chip CM5 (GE Healthcare), or chips produced by immobilizing Protein A/G (Thermo Scientific) to Series S Sencor Chip CM5 (GE Healthcare) were used. Antibodies of interest were captured onto these chips, and allowed to interact to each FcγR diluted with running buffer. To regenerate and repeatedly use the chip, the antibodies captured onto the chip were washed off by reacting 10 mM glycine-HCl, pH 1.5.

Binder	Kd
B1	250 nM
B2	330 nM

Target: T2, FcγRIIa H type extracellular domain …
Test: as above
Description: as §1, §2

Binder	Kd
B1	69 nM
B2	84 nM

Target: T3, FcγRIIb extracellular domain with …
Test: as above
Description: as §1, §2

Binder	Kd
B1	1300 nM
B2	1800 nM

Target: T4, FcγRIa extracellular domain with C-terminal His tag (human, UniProt P12314 16-292)
T4 construct: extracellular domain; also called FcgRI; FcgRIa; not shown: His tag at the C terminus
Test: as above
Description: as §1, §2

T4 sequence (P12314 16-292): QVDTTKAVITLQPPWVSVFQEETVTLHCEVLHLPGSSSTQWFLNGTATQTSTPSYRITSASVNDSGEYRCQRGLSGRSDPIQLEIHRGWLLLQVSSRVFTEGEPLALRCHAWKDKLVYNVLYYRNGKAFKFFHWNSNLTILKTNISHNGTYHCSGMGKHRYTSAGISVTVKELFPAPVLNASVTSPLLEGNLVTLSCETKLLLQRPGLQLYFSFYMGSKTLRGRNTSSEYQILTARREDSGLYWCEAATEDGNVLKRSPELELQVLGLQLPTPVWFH

Binder	Kd
B1	0.17 nM
B2	0.093 nM

Target: T5, FcγRIIIa F type extracellular domain with C-terminal His tag (human, UniProt P08637 17-208)
T5 construct: extracellular domain; also called FcgRIIIa F; FcgRIIIaF; not shown: His tag at the C terminus
Test: as above
Description: as §1, §2

T5 sequence (P08637 17-208): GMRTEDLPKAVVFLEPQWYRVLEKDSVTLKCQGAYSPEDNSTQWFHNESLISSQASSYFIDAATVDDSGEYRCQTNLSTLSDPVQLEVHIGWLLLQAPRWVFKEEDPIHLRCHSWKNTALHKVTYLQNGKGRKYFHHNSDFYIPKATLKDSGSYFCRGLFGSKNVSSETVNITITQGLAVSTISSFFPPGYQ

Binder	Kd
B1	4.3 nM
B2	4.2 nM

Target: T6, FcγRIIIa V type extracellular domain with C-terminal His tag (human, UniProt P08637 17-208)
T6 construct: extracellular domain; also called FcgRIIIa V; FcgRIIIaV; not shown: His tag at the C terminus
Test: as above
Description: as §1, §2

T6 sequence (P08637 17-208 F176V): as the sequence (P08637 17-208) above, with F160V counted along it

Binder	Kd
B1	1.1 nM
B2	1.3 nM

Target: T1, FcγRIIa R type extracellular domain …
Test: SPR (Biacore), antibody captured on chip, soluble FcgR as analyte; experiment 1
Description: as §1, §2

Binder	Kd
B3	280 nM
B4	290 nM
B5	330 nM
B6	240 nM
B7	290 nM
B8	340 nM
B9	300 nM
B10	300 nM
B11	280 nM
B12	270 nM
B13	250 nM

Target: T2, FcγRIIa H type extracellular domain …
Test: as above
Description: as §1, §2

Binder	Kd
B3	86 nM
B4	93 nM
B5	110 nM
B6	80 nM
B7	96 nM
B8	99 nM
B9	88 nM
B10	95 nM
B11	82 nM
B12	88 nM
B13	79 nM

Target: T3, FcγRIIb extracellular domain with …
Test: as above
Description: as §1, §2

Binder	Kd
B3	1400 nM
B4	1600 nM
B5	1900 nM
B6	1500 nM
B7	1800 nM
B8	2400 nM
B9	1900 nM
B10	1700 nM
B11	1500 nM
B12	2500 nM
B13	1500 nM

Target: T4, FcγRIa extracellular domain with …
Test: as above
Description: as §1, §2

Binder	Kd
B3	0.1 nM
B4	0.089 nM
B5	0.095 nM
B6	0.13 nM
B7	0.057 nM
B8	0.1 nM
B9	0.092 nM
B10	0.15 nM
B11	0.081 nM
B12	0.12 nM
B13	0.095 nM

Target: T5, FcγRIIIa F type extracellular domain …
Test: as above
Description: as §1, §2

Binder	Kd
B3	5 nM
B4	4.4 nM
B5	4.7 nM
B6	4.6 nM
B7	5.3 nM
B8	4.6 nM
B9	4.3 nM
B10	5 nM
B11	3.9 nM
B12	4.2 nM
B13	4.6 nM

Target: T6, FcγRIIIa V type extracellular domain …
Test: as above
Description: as §1, §2

Binder	Kd
B3	1.3 nM
B4	1.3 nM
B5	1.3 nM
B6	1.3 nM
B7	1.5 nM
B8	1.1 nM
B9	1.3 nM
B10	1.4 nM
B11	1.2 nM
B12	1.3 nM
B13	1.2 nM

From patent US20180155451A1 (published 2018)
